What was measured:
Experiment in all cases: flow cytometry, alanine-scan library in HEK-293T, with cytochalasin B
hsGLUT4 L61A = target: T1, hsGLUT4 L61A (human, UniProt P14672 1-509)
T1 sequence: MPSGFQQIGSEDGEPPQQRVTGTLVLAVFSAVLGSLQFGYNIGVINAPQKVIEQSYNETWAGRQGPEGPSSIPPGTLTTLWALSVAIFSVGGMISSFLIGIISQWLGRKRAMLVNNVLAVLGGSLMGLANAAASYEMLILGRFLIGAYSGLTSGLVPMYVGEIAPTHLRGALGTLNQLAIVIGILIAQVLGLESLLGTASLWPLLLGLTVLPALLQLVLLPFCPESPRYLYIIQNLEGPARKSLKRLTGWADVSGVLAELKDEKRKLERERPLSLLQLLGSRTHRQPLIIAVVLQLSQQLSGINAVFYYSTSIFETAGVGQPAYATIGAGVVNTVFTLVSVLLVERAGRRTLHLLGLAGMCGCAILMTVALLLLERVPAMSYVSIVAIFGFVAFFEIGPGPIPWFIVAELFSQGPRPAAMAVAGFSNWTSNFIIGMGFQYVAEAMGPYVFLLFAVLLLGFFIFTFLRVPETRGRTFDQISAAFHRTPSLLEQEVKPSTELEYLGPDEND
Method in brief: (§1)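 HEK-293T cells expressing individual GLUT4 alanine mutants were stained 48 h post-transfection with anti-GLUT4 scFv MAbs (2 μg/ml), then biotinylated secondary and streptavidin-PerCP, and read by high-throughput flow cytometry. Where used, cytochalasin B (10 uM final) was given for 30 min before and during primary antibody staining.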

hsGLUT4 I163A = target: T2, hsGLUT4 I163A (human, UniProt P14672 1-509)
T2 sequence: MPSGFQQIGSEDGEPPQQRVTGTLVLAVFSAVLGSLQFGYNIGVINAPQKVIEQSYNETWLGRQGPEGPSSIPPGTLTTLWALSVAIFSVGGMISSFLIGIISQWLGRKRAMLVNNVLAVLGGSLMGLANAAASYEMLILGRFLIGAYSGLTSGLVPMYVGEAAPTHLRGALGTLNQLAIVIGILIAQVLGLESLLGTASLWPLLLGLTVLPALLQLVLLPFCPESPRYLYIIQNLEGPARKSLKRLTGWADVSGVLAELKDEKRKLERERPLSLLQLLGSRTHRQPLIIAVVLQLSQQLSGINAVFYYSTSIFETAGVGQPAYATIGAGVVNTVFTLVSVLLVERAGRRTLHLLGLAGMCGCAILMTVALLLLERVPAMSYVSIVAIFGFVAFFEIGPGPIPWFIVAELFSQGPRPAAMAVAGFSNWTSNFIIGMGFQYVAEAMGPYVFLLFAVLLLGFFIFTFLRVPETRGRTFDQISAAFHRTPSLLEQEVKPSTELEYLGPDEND
Method in brief: as §1

hsGLUT4 L260A = target: T3, hsGLUT4 L260A (human, UniProt P14672 1-509)
T3 sequence: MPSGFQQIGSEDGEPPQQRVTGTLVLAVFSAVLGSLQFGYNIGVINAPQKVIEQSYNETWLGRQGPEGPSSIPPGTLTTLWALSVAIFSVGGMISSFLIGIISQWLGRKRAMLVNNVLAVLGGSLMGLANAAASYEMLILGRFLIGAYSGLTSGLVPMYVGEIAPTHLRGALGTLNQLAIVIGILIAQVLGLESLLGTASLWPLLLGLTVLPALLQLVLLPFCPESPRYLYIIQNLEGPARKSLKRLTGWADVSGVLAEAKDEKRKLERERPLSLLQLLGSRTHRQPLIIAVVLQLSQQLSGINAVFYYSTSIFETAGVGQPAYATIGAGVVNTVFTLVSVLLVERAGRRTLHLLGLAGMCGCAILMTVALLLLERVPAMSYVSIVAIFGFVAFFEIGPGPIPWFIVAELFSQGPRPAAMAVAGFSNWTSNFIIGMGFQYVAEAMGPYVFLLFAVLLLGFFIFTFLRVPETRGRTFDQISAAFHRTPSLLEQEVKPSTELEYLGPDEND
Method in brief: as §1

hsGLUT4 E315A = target: T4, hsGLUT4 E315A (human, UniProt P14672 1-509)
T4 sequence: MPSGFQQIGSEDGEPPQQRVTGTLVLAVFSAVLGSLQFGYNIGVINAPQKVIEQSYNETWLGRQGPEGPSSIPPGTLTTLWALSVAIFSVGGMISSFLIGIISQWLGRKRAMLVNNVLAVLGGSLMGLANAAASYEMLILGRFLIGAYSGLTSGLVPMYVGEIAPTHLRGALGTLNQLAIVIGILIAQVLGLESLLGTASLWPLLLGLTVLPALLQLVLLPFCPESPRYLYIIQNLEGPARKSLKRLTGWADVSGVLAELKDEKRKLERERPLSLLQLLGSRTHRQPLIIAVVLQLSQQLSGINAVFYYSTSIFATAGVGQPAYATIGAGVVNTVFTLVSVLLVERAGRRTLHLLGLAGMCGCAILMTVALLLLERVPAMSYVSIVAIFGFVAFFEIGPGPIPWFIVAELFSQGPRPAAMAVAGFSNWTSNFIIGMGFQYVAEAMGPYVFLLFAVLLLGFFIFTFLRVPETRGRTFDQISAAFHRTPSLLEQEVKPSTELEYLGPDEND
Method in brief: as §1

B1: AB102 (Fc fusion)
scFv: ALTQPSSVSANLGGTVKITCSGGGSYGYGWYQQKSPGSAPVTVIYSNDQRPSDIPSRFSGSKSGSTATLTITGVRAEDEAIYYCGSTDSDYVGIFGAGTTLTVLGQSSRSSGGGGSSGGGGSAVTLDESGGGLQTPGGTLSLVCKASGFDFSSYATIWVRQAPGKGLEWVAGISGTGTGSSTGYAPAVKGRATISRDNGQSTVRLQLNNLRAEDTGSYFCAKSTGYGDSWIYPDSIDAWGHGTEVIVSS
notes: also called MAb AB102; not shown: Fc fragment of human IgG1, cloned in frame with the scFv
For B1, the “% of binding to wild type GLUT4” value (hsGLUT4 L61A) was 69%, the “% of binding to wild type GLUT4” value (hsGLUT4 I163A) was 28% and the “% of binding to wild type GLUT4” value (hsGLUT4 L260A) was 42%. The “% of binding to wild type GLUT4” value (hsGLUT4 E315A) was 76%.

Source: US20210238276A1 (INTEGRAL MOLECULAR, published 2021)
